The target in test [1] is T1, rat EpCAM (rat, UniProt O55159 24-266, limits assumed).
T1 sequence (looked up): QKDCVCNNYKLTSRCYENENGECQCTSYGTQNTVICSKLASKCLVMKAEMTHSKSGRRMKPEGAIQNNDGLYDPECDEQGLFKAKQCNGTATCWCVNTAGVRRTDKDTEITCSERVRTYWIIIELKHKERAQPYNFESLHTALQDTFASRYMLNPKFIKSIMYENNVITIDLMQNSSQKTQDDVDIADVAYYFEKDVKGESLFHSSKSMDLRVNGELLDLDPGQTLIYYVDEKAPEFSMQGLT
Kind of test: hybridoma screening, ELISA.

For test [2], the target named is T2, mouse EpCAM (mouse, UniProt Q99JW5 24-266).
T2 construct: extracellular domain; also called mouse EpCAM-ECD
T2 sequence (looked up): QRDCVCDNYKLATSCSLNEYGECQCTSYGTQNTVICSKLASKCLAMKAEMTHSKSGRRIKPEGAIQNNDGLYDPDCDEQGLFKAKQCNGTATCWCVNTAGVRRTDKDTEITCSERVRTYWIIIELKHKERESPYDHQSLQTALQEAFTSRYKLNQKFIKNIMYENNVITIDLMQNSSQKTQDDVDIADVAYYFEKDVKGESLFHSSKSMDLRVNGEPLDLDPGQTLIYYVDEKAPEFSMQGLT
Kind of test: hybridoma screening, ELISA.

The target in test [3] is T3, cyno EpCAM (recombinant, ELISA antigen) (cynomolgus monkey).
T3 construct: extracellular domain; also called cynomolgus EpCAM extracellular domain
T3 sequence (Q1WER1 24-265): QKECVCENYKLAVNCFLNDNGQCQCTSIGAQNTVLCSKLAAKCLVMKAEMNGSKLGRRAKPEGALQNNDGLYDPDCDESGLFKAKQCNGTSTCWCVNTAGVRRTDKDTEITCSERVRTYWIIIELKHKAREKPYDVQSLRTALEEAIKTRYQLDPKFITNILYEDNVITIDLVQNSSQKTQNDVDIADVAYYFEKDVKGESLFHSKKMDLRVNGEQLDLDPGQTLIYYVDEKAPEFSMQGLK
Kind of test: ELISA, cyno EpCAM, pH 6.0. How it is done:
(§1) The binding activities of the humanized conditionally active anti-EpCAM antibodies to cyno EpCAM were similarly measured. The EC50 for binding to the cyno EpCAM at pH 6.0 and pH 7.4 for the humanized conditionally active anti-EpCAM antibodies are summarized in Table 7.
(§2) The ELISA assay was performed using the following protocol: [0388] 1) Coat ELISA plates with 100 μL of 0.5 μg/mL (06_20_17 and 06_28_17 Experiments) or 1 μg/mL (07_06_17 and 07_11_17 Experiments) recombinant EpCAM antigen in carbonate-bicarbonate coating buffer [0389] 2) Cover plates with sealing film and incubate overnight at 4° C. [0390] 3) Decant plates and tap out residual liquid on a stack of paper towels [0391] […] 5) Add 200 μL of various pH incubation buffers to the wells according to the sample map.

The target of test [4] is T3, cyno EpCAM (recombinant, ELISA antigen). Briefly: ELISA, cyno EpCAM, pH 7.4. How it is done:
as §1, §2

The target of test [5] is T4, recombinant human EpCAM extracellular domain (human, UniProt P16422 24-265).
T4 construct: extracellular domain; Plate-coated antigen of the ELISAs; also called human EpCAM ECD; recombinant EpCAM antigen
T4 sequence (looked up): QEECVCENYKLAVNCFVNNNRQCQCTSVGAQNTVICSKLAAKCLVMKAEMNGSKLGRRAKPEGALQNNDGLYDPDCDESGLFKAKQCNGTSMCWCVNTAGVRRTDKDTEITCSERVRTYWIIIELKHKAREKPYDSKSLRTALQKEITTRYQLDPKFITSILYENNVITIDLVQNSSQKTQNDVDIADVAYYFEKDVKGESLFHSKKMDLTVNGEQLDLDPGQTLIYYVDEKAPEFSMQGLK
Kind of test: ELISA, human EpCAM, pH 6.0. On the procedure: (§3) The binding activities of the humanized conditionally active anti-EpCAM antibodies to human EpCAM were measured by ELISA, using the template antibody BAP-1-5-01-06, as a control. The EC50 values of the humanized conditionally active anti-EpCAM antibodies for binding to human EpCAM at pH 6.0 and pH 7.4 are summarized in Table 5.
as §2

Test [6] concerns the target T4, recombinant human EpCAM extracellular …. Briefly: ELISA, human EpCAM, pH 7.4. On the procedure: as §3, §2
For test [7], the target named is T5, mouse EpCAM-ECD with C-terminal His-tag (expressed in CHO cells) (mouse, UniProt Q99JW5 24-266).
T5 construct: extracellular domain
T5 sequence (looked up): T2 sequence (looked up)
Kind of test: ELISA on purified His-tagged ECDs. An excerpt: (§4) Human, mouse and the four chimeric EpCAM extracellular domains were expressed with a C-terminal His-tag in CHO cells and purified.

The target of test [8] is T6, chimeric human/mouse EpCAM-ECD 1 (Homo sapiens (Human), UniProt P16422 24-265).
T6 construct: also called ch1EpCAM-his; chimeric EpCAM-ECD 1
T6 chain: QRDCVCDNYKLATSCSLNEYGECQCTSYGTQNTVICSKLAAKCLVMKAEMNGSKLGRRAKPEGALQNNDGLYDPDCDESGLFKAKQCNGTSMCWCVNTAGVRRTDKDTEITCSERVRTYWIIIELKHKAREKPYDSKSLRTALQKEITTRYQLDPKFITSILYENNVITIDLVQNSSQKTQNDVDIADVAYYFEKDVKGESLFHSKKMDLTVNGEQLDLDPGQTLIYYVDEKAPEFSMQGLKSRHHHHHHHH
Briefly: ELISA on purified His-tagged ECDs.
Source text: as §4

Test [9] has as its target T3, cyno EpCAM (recombinant, ELISA antigen). Briefly: ELISA with pH titration, cyno EpCAM. On the procedure:
The binding activities of the humanized conditionally active anti-EpCAM antibodies to cyno EpCAM with pH titration was similarly measured by ELISA.
as §2

Test [10] has as its target T4, recombinant human EpCAM extracellular …. Kind of test: ELISA with pH titration, human EpCAM. On the procedure:
The binding activities of the humanized conditionally active anti-EpCAM antibodies to human EpCAM with pH titration were also measured by ELISA.
as §2

Test [11] deals with T7, cyno EpCAM expressed on 293 cells (cynomolgus monkey).
T7 construct: whole, on cells; also called 293 cells expressing cyno EpCAM
T7 sequence (Q1WER1 24-314): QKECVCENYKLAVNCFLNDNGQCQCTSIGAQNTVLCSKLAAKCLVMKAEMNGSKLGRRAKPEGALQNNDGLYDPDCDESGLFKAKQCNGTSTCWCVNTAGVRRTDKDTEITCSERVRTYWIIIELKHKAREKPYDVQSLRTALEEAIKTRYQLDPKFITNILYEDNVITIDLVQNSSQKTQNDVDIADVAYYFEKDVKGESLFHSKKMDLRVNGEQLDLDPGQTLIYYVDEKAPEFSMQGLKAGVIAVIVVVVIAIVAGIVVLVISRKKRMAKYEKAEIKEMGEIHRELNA
Briefly: FACS on 293 cells expressing cyno EpCAM, pH 6.0. On the procedure:
(§5) A similar FACS analysis was also carried out using 293 cells expressing cyno EpCAM. […] The EC50 values for binding to the 293 cells expressing cyno EpCAM by the humanized conditionally active anti-EpCAM antibodies are summarized in Table 11.

Test [12] addresses T7, cyno EpCAM expressed on 293 cells. Briefly: FACS on 293 cells expressing cyno EpCAM, pH 7.4. On the procedure: as §5
For test [13], the target named is T8, human EpCAM expressed on cells (CHO, Colo205, 293) (human, UniProt P16422 24-314).
T8 construct: whole, on cells; also called CHO cells expressing human EpCAM; Colo205 cells expressing human EpCAM
T8 sequence (looked up): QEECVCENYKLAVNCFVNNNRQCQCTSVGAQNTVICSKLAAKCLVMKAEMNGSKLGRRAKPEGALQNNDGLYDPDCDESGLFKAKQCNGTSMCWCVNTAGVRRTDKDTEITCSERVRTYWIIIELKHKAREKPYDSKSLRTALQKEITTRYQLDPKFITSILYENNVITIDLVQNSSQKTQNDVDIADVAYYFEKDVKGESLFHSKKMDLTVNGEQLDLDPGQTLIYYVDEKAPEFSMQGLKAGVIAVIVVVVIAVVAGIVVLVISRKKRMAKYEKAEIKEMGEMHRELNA
Kind of test: FACS on 293 cells expressing human EpCAM, pH 6.0. On the procedure:
(§6) A similar FACS analysis was also carried out using 293 cells expressing human EpCAM. […] The EC50 values for binding to the 293 cells expressing human EpCAM by the humanized conditionally active anti-EpCAM antibodies are summarized in Table 10.

The target in test [14] is T8, human EpCAM expressed on cells (CHO, …). Kind of test: FACS on 293 cells expressing human EpCAM, pH 7.4. On the procedure:
as §6

The target is the same in test [15]. Kind of test: FACS on Colo205 cells expressing human EpCAM, pH 6.0. How it is done: (§7) Binding activities of the humanized conditionally active anti-EpCAM antibodies to Colo205 cells expressing human EpCAM were measured by FACS at pH 6.0 and pH 7.4. […] The EC50 values for binding to the Colo205 cells expressing human EpCAM by the humanized conditionally active anti-EpCAM antibodies are summarized in Table 9.

For test [16] the target is unchanged. Kind of test: FACS on Colo205 cells expressing human EpCAM, pH 7.4. How it is done: as §7

B1: antibody of hybridoma clone 12C10F12 (antibody, V domains shown)
VH: QVQLQQSGAELAKPGASVKVSCKASGYTFTSYWMHWVKQRPGQGLEWIGYIRPSTGYTEYNQKFKDKATLTADKSSSTAYMQLSSLTFEDSAVYYCGRGDNWVGFANWGQGTLVTVSA
VL: QIVLTQSPAIMSASLGEEIALTCSASSSISYMHWYQQKSGTSPKLLIYSTSNLASGVPSRFSGSGSGTFYSLTISSVEAEDAADYFCHQWSTYHTFGSGTKLEIK
Turning to B1, the binding result in [1] and in test [2] was “no binding” each time.

B2: BAP-105.4-01-05 (antibody, V domains shown)
VH: EVQLVQSGAEVKKPGATVKISCKVSGYTFTSYWMHWIRQPPGKGLEWIGYIRPSTGYTEYNQKFKDRFTISRDNSKNTLYLQMNSLRAEDTAVYYCGRGDNWVGFANWGQGTLVTVSS
VL: EIVLTQSPDFQSVTPKEKVTITCSASSSISYMHWYQQKPGKAPKLLIYSTSNLASGVPDRFSGSGSGTDFTLKISRVEAEDVGVYYCHQWSTYETFGQGTKVEIK
notes: Humanized
As to B2, the EC50 in [3] stood at 0.49 µg/mL; in [4], 7.17 µg/mL; in test [5], 0.0134 µg/mL; in test [6], 50 µg/mL; in test [11], 1.6 µg/mL; in test [12] it was 11.6 µg/mL. In addition, the half-maximal effective concentration (EC50) in [13] came to 0.129 µg/mL; in [14], 0.154 µg/mL; in test [15], 0.342 µg/mL; in [16], 0.418 µg/mL. In addition, the binding result in test [7] and in test [8] was “no binding” throughout. Moreover, the pH inflection point in test [9] was determined as 6.35 pH; in test [10], 6.83 pH.

Source of the values: patent US20260053904A1 (BIOATLA, published 2026).
